Data: article doi:10.1101/2021.12.06.471412 (bioRxiv, 2021)

T1: purified human TRAP1 (human, UniProt Q12931 60-704)
T1 sequence: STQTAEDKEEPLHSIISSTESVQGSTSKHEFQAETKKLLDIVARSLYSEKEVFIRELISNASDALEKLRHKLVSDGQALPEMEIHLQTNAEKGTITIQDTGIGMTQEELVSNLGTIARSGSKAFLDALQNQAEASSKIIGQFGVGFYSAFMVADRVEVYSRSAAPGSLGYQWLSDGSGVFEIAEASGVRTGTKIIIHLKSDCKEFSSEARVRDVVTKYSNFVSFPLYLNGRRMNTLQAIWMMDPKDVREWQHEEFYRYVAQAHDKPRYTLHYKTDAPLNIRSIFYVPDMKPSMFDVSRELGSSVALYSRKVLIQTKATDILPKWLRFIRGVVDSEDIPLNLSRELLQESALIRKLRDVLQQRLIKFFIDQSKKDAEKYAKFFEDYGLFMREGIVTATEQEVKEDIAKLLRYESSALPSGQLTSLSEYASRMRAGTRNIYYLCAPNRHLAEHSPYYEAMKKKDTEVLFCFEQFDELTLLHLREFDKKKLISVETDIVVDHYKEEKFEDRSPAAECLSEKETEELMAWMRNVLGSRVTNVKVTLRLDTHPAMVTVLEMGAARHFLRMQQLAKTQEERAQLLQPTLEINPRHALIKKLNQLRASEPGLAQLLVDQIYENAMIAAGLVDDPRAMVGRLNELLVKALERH

T2: recombinant mature human OSCP (human, UniProt P48047 24-213)
T2 sequence: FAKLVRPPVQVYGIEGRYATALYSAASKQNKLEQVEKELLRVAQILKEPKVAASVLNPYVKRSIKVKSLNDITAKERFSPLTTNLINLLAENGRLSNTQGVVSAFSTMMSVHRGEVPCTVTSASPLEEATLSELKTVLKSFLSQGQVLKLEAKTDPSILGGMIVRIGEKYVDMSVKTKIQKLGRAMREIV


What was measured:
purified human TRAP1 = biological target: T1, purified human TRAP1; test: far-Western, overlay or dot blot
[1] = biological target: T2, recombinant mature human OSCP; test: SPR

binding result (purified human TRAP1) | binding result [1] | Binder
binds |  | F-ATP synthase subunit b (bovine heart) (natural protein) PVPPLPEHGGKVRFGLIPEEFFQFLYPKTGVTGPYVLGTGLILYLLSKEIYVITPETFSAISTIGFLVYIVKKYGASVGEFADKLNEQKIAQLEEVKQASIKQIQDAIDMEKSQQALVQKRHYLFDVQRNNIAMALEVTYRERLHRVYREVKNRLDYHISVQNMMRQKEQEHMINWVEKRVVQSISAQQEKETIAKCIADLKLLSKKAQAQPVM
 | binds | recombinant mature human CyPD (natural protein) not shown
binds |  | F-ATP synthase subunit OSCP (bovine heart) (natural protein) FAKLVRPPVQIYGIEGRYATALYSAASKQNKLEQVEKELLRVGQILKEPKMAASLLNPYVKRSVKVKSLSDMTAKEKFSPLTSNLINLLAENGRLTNTPAVISAFSTMMSVHRGEVPCTVTTASALDEATLTELKTVLKSFLSKGQVLKLEVKIDPSIMGGMIVRIGEKYVDMSAKTKIQKLSRAMREIL
binds |  | F-ATP synthase subunit g (bovine heart) (natural protein) MAEFVRNLAEKAPALVNAAVTYSKPRLATFWYYAKVELVPPTPAEIPTAIQSLKKIINSAKTGSFKQLTVKEALLNGLVATEVWMWFYVGEIIGKRGIIGYDV
binds |  | F-ATP synthase subunit α (bovine heart) (natural protein) QKTGTAEVSSILEERILGADTSVDLEETGRVLSIGDGIARVHGLRNVQAEEMVEFSSGLKGMSLNLEPDNVGVVVFGNDKLIKEGDIVKRTGAIVDVPVGEELLGRVVDALGNAIDGKGPIGSKARRRVGLKAPGIIPRISVREPMQTGIKAVDSLVPIGRGQRELIIGDRQTGKTSIAIDTIINQKRFNDGTDEKKKLYCIYVAIGQKRSTVAQLVKRLTDADAMKYTIVVSATASDAAPLQYLAPYSGCSMGEYFRDNGKHALIIYDDLSKQAVAYRQMSLLLRRPPGREAYPGDVFYLHSRLLERAAKMNDAFGGGSLTALPVIETQAGDVSAYIPTNVISITDGQIFLETELFYKGIRPAINVGLSVSRVGSAAQTRAMKQVAGTMKLELAQYREVAAFAQFGSDLDAATQQLLSRGVRLTELLKQGQYSPMAIEEQVAVIYAGVRGYLDKLEPSKITKFENAFLSHVISQHQALLSKIRTDGKISEESDAKLKEIVTNFLAGFEA
